Data: patent US7291673B2, “Conjugate addition reactions for the controlled delivery of pharmaceutically active compounds” (Eidgenossiche Technische Hochschule Zurich, priority 2000, dated 2007)
Non-standard residues stand in square brackets, D forms with d. Residues, ends and D or L forms follow the SMILES beside them. No end group written: not given here.

Legend:
[1] = Water solubility of peptide; format: physicochemical
Description: The peptide […] (SEQ ID NO: 58) was designed to be sensitive to hydrolysis by the enzyme plasmin, to contain more than one thiol (cysteine) for addition reaction with conjugated unsaturated groups, and to be very water soluble. The peptide was synthesized according to the methods described above. The peptide was extremely water soluble, up to at least 120 mg/ml.

[2] = cited from earlier work
[3] = system: human umbilical vein endothelial cells; assay: Endothelial cell spreading on photopolymerized PEG gels containing peptides; format: cell-based; settings: 400 cells per mm^2; normal cell culture medium
Description: Polyethylene glycol diacrylate of mol. wt. 8000 (230 mg/ml) was allowed to dissolve in HEPES buffered saline (10 mmol HEPES, Sigma, 8 g/L NaCl, pH 7.4) for one hour. Triethanolamine (Aldrich, 15.3 μl/ml) was added, and the pH of the solution was adjusted to pH 8 with 6 N HCl. Cysteine containing peptides were dissolved in 116.5 μl of HEPES buffered saline, and added to 870 μl of the PEG solution with vortexing. After 5 minutes, 3.5 μl of N-vinyl pyrrolidone and 10 μl of a 10 mM solution of Eosin Y were added, followed by vortexing. Gels were formed by exposure to light at 75 mW/cm^2 for one minute (Cermax Xenon Lightsource, transmitting light between 470 and 520 nm; ILC Technology, Sunnyvale, Calif., USA). Gels were allowed to swell in Tris buffered saline, pH 7.4 (4.36 g Tris HCl, 0.64 g Trizma base, 8 g NaCl, 0.2 g KCl per 1 L, all from Sigma) for 36 hr.
PEG gels were prepared as described above, using the peptide […]. Most cells have receptors that recognize the sequence GRGDSPG (SEQ ID NO: 74), and cells will interact with surfaces displaying immobilized RGD containing peptides. […] Cells were seeded onto the gels at a concentration of 400 cells per mm^2, and the number of spread cells per area were counted at different times (see FIG. 6). […]

[4] = system: Human foreskin fibroblasts; assay: Fibroblast adhesion and spreading on conjugate addition gels; format: cell-based; settings: 6 hours post-seeding; RGD peptide on one of every 12 acrylates
Description: Conjugate addition gels were made with 0.1 g/ml PEG-2500-3A and 1.1 acrylates per sulfhydryl in […]. The gels were swollen for 24 hours in Dulbecco's modified Eagle's medium (some in serum-free conditions and some in 10% fetal bovine serum) containing 1% antibiotic and antimycotic agents. Human foreskin fibroblasts (passage 7; passaged with trypsin/EDTA) were seeded onto the gels. […] The cells became increasingly clumped together. The cellular behavior was independent of serum in the medium. Control cells seeded on tissue culture treated polystyrene spread normally.
Conjugate addition gels were made with PEG-2500-3A, […], and an RGD-containing peptide ([…]) incorporated in a pendant fashion. The gels were made with 0.1 g PEG-2500-3A/ml and 1.1 acrylates per sulfhydryl in […]. The gels were swollen for more than 36 hours in Dulbecco's modified Eagle's medium (some in serum-free conditions and some in 10% fetal bovine serum) containing 1% antibiotic and antimycotic agents. When the RGD peptide was incorporated on one of every 12 acrylates of the PEG-2500-3A, human foreskin fibroblasts (passage 8; passaged by trypsin/EDTA) adhered to the gels (both those swollen in serum-free conditions and those in serum-containing medium). At 6 hours post-seeding, the cells were uniformly distributed over the gel surface, and approximately 50% of the seeded cells were spread (in both medium conditions). […]

plasmin = plasmin (Homo sapiens, UniProt P00747); assay: Plasmin stability of peptides by analytical C18 HPLC; format: biochemical; settings: 37° C.; plasmin at 1/1000 the peptide concentration
Text: Analytical C18 HPLC (linear acetonitrile gradient over 0.1% TFA in water) was used to confirm the relative plasmin-stability of GCY-DLys-N-DArg-DCG. The following samples were run: plasmin; […]; plasmin+[…]; GCY-DLys-N-DArg-DCG; and plasmin+GCY-DLys-N-DArg-DCG.

[5] = target: T1, Collagenase (Matrix metalloproteinase I) (Homo sapiens, UniProt P03956); settings: cited from earlier work
T1 sequence (P03956 100-469): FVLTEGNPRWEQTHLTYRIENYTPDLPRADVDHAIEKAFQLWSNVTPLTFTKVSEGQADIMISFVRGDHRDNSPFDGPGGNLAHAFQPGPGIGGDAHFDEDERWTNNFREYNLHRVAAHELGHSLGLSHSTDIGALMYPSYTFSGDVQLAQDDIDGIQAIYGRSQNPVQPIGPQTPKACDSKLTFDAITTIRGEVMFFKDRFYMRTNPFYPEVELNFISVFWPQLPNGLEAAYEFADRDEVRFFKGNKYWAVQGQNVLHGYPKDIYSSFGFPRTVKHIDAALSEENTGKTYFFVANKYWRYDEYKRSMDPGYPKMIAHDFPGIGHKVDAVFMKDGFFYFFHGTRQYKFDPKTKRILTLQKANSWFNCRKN

[6] = Dissolution of albumin particles in PEG solutions; format: physicochemical
Text: For the gels in which controlled release was observed, protein particles could be seen within the gels for the entire period of release. For all gels, the disappearance of protein particles from the gel was coincident with the completion of delivery of greater than 90% of the protein in the gel. Thus, the solubility of bovine serum albumin in PEG-containing solutions was likely the most important factor in realizing controlled release of the protein. When a solution containing dissolved albumin was mixed with a solution containing dissolved PEG, the albumin precipitated, dependent upon the concentrations and the molecular weight of the PEG. Similarly, when particles of bovine serum albumin were added to a PEG solution, the kinetics of dissolution of the albumin were strongly affected by the presence of PEG. The albumin solids completely dissolved in 50 mM PBS buffer, pH 7.4 in three minutes in the absence of PEG. With 10% PEG molecular weight 8000 in solution, the time to dissolution of the albumin particles increased to six minutes. […] With 20% PEG molecular weight 8000, the protein particles dissolved to form a second liquid phase within one hour. This was presumably a true coacervate with one protein-rich, polymer-poor phase, and one polymer-rich, protein-poor phase.

Chain of plasmin (P00747 581-810 limits assumed, species assumed): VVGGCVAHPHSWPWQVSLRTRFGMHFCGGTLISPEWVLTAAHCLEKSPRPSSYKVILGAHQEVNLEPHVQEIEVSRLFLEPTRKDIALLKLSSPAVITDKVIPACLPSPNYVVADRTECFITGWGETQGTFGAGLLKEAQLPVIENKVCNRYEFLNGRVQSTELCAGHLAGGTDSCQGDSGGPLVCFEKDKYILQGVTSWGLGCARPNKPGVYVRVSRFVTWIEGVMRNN
Chain of plasmin (P00747 97-580 partner limits assumed, species assumed): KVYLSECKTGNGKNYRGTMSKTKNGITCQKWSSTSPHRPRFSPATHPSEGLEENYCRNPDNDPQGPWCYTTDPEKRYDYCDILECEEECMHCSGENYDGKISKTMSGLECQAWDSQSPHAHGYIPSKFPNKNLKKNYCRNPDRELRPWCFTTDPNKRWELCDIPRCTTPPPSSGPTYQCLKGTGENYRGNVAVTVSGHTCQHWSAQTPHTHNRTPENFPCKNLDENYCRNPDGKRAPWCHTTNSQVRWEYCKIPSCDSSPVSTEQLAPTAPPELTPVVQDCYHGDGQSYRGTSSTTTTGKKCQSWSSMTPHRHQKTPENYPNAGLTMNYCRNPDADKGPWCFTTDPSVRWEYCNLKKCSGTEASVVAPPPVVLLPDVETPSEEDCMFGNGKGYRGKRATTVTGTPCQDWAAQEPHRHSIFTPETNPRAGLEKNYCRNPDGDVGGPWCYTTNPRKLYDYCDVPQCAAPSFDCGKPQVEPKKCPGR

With `N=C(N)NCCC[C@H](NC(=O)[C@H](CC(N)=O)NC(=O)[C@H](CCCCN)NC(=O)[C@H](Cc1ccc(O)cc1)NC(=O)[C@H](CS)NC(=O)CN)C(=O)N[C@@H](CC(=O)O)C(=O)N[C@@H](CS)C(=O)NCC(=O)O` (H-GCYKNRDCG-OH; N-terminus and C-terminus assumed) as the compound, how does the solubility [1] read?
The solubility was at least 120 mg/mL.

Which “pK of alpha amine” value ([2]; alpha amine of amino acid) does the source give for `NC(=O)C[C@H](N)C(=O)O` [asparagine] here?
Its value is 8.8.

For `NCCCC[C@H](N)C(=O)O` [lysine], which “pK of side chain epsilon amine” value ([2]; side chain epsilon amine) is on record?
The value was 10.80.

For GCGYGRDGSPG (Based on Homo sapiens), which “cell spreading on PEG gels containing peptide” value [3] is on record?
Its value is “has no biological activity”.

For “GCGYGRGDSPG (not fully specified) [RGD-containing adhesion peptide incorporated into gels in a pendant fashion]”, which seeded cells spread [4] is on record?
The seeded cells spread was “approximately 50%”.

What about the “cell spreading on PEG gels containing peptide” value [3] of the same compound?
The value was “Cells could only spread on gels that contained the peptide”.

For “GCY-DLys-N-DArg-DCG (GCY[dK]N[dR]DCG; cysteine pairing not given here)”, which “degradation of peptide by plasmin” value (plasmin) is on record?
The value was “unaffected by the plasmin at 24 hours”.

With GPQGIAGQ as the compound, how does the “kcat/Km relative to that of PQGIAG” value [5] read?
The value was 100% (normal).

Which “kcat/Km relative to that of PQGIAG” value [5] does the source give for GPQGIASQ here?
Its value is 130% (fast).

Which “kcat/Km relative to that of PQGIAG” value [5] does the source give for GPQGIFGQ here?
Its value is >300% (faster).

With GPQGIWGQ as the compound, how does the “kcat/Km relative to that of PQGIAG” value [5] read?
Its value is >700% (very fast).

With GPQGRAGQ as the compound, how does the “kcat/Km relative to that of PQGIAG” value [5] read?
The value was <5% (very slow).

Which “kcat/Km relative to that of PQGIAG” value [5] does the source give for GPQGVAGQ here?
The value was 9% (slower).

For GPVGIAGQ, which “kcat/Km relative to that of PQGIAG” value [5] is on record?
Its value is 30% (slow).

With “albumin: bovine serum albumin (Cohn fraction V), model protein” as the compound, how does the “time to complete dissolution of albumin solids” value ([6]; 50 mM PBS buffer, pH 7.4, absence of PEG) read?
Its value is “three”.

And the “time to dissolution of albumin particles” value ([6]; 10% PEG molecular weight 8000)?
Its value is “six”.

And the “time to dissolve into a second liquid phase” value ([6]; 20% PEG molecular weight 8000)?
The value was “one”.

What about the dissolution of protein ([6]; 30 or 40% PEG molecular weight 8000) of the same compound?
Its dissolution of protein is “did not dissolve after seven days”.
